# Test results: CN112521494A (WUHAN INST OF BIOLOGICAL PRODUCTS CO LTD, dated 2021)
# How the values were obtained:
# [1] = molecular target: SARS-CoV-2刺突S1亚基蛋白(Sino公司，货号:40591-V02H) (SARS-CoV-2, UniProt P0DTC2 16-685)
# [2] = molecular target: T1, SARS-CoV-2刺突S1-His重组蛋白(Sino公司，货号:40591-V08H) (SARS-CoV-2, UniProt P0DTC2 16-685); assay: ELISA; S1-His coated at 1.0 μg/mL, goat anti-human IgG-HRP detection
# T1 construct: domain: S1; also called S1蛋白; 刺突蛋白S1
binder,measurement,setting,value
"抗SARS-CoV-2的单克隆抗体2B11 (antibody, V domains shown, also called 2B11抗体; 人源抗SARS-CoV-2抗体2B11) VH: EVQLVESGGGLVQPGGSLRLSCAASEITVSSNYMNWVRQAPGKGLEWVSVIYSGGTTYYADSVKGRFTISRDNSENTLYLQMNSLRAEDTAVYYCARDLMEVGGMDVWGQGTTVTVSS VL: LPVLTQPPSASGTPGQRVTISCSGSSSNVENDNVNWFQQQVPGSTPKLVIYNDRLRPSGVPDRFSGSKSGTSAYLAISGLQSEDEADYYCVAWDASLQSYVFGTGTKVTVL",IC50,[1],2.79 nM
same,EC50,[2],0.051 nM
